A word on the Kd: it is the equilibrium constant for the complex coming apart.

Data set [1] deals with T1, E2F4 1-180 (UniProt Q16254 1-180). Nature of the data set: SPR; random control DNA; SPR: Biacore X100, SA chip, DNA in PBS (137 mM NaCl, 2.7 mM KCl, 10 mM Na2HPO4, 2 mM KH2PO4, pH 7.4), protein 10-320 nM (Fig. S3D legend prints mM); ITC: 250 mM NaCl, 50 mM Tris-HCl pH 7.5; EMSA: Beyotime kit, 6% native gel; temperatures not stated. As to conditions: protein: recombinant; tags: His (pET28a); chain copies: 2; label: 5'-biotin on sense strand; blunt.

The target in data set [2] is T2, E2F4 1-88 (UniProt Q16254 1-88). Put plainly: ITC; error exceeds value; SPR: Biacore X100, SA chip, DNA in PBS (137 mM NaCl, 2.7 mM KCl, 10 mM Na2HPO4, 2 mM KH2PO4, pH 7.4), protein 10-320 nM (Fig. S3D legend prints mM); ITC: 250 mM NaCl, 50 mM Tris-HCl pH 7.5; EMSA: Beyotime kit, 6% native gel; temperatures not stated. As to conditions: protein: recombinant; tags: GST removed with 3C protease (ITC methods); pET28 His construct also described; chain copies: 2; blunt.

Data set [3] deals with T1, E2F4 1-180. Put plainly: SPR; SPR: Biacore X100, SA chip, DNA in PBS (137 mM NaCl, 2.7 mM KCl, 10 mM Na2HPO4, 2 mM KH2PO4, pH 7.4), protein 10-320 nM (Fig. S3D legend prints mM); ITC: 250 mM NaCl, 50 mM Tris-HCl pH 7.5; EMSA: Beyotime kit, 6% native gel; temperatures not stated. As to conditions: protein: recombinant; tags: His (pET28a); chain copies: 2; label: 5'-biotin on sense strand; blunt.

Data set [4] concerns the target T2, E2F4 1-88. Nature of the data set: ITC; SPR: Biacore X100, SA chip, DNA in PBS (137 mM NaCl, 2.7 mM KCl, 10 mM Na2HPO4, 2 mM KH2PO4, pH 7.4), protein 10-320 nM (Fig. S3D legend prints mM); ITC: 250 mM NaCl, 50 mM Tris-HCl pH 7.5; EMSA: Beyotime kit, 6% native gel; temperatures not stated. As to conditions: protein: recombinant; tags: GST removed with 3C protease (ITC methods); pET28 His construct also described; chain copies: 2; blunt. (In general: ITC needs no label: the signal is the heat of the interaction.)

T1 sequence (Q16254 1-180): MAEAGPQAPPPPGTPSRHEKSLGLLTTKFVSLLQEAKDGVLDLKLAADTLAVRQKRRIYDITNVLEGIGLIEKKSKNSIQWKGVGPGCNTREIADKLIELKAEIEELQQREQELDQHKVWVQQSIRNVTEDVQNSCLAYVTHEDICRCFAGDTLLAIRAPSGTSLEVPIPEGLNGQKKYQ
T2 sequence (Q16254 1-88): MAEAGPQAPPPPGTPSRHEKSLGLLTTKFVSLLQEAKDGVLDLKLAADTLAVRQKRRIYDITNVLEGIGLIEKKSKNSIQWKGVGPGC

B1: Control-DNA-biotin (SPR) (dsDNA)
DNA 1: ATGATGTCACCACAAGAAGT
DNA 2: ACTTCTTGTGGTGACATCAT
B1: the Kd with E2F4 1-180 [1] was found to be 0.136 µM.

B2: Cp2-mut (ITC) (dsDNA)
DNA 1: TTAGATTAAATTTCTTTGT
DNA 2: ACAAAGAAATTTAATCTAA
For B2, in the data set with E2F4 1-88 [2], the Kd was 19.6 ± 31.2 µM.

B3: Biotin-Cp2 (SPR) (dsDNA)
DNA 1: TTAGATTAAAGGTCTTTGT
DNA 2: ACAAAGACCTTTAATCTAA
Regarding B3, the Kd with E2F4 1-180 [3] was 0.0878 µM.

B4: Cp2 (ITC) (dsDNA)
DNA 1: TTAGATTAAAGGTCTTTGT
DNA 2: ACAAAGACCTTTAATCTAA
Consider B4, for which the Kd with E2F4 1-88 [4] worked out at 10.3 ± 4.37 µM.

Source of the values: publication PMC8692152, “Cellular Id1 inhibits hepatitis B virus transcription by interacting with the novel covalently closed circular DNA-binding protein E2F4”.
